“Also recorded” adds a separate entry of the source.
How the values were obtained:
[1] = target: T1, aldehyde decarbonylase (ADC) (Prochlorococcus marinus, UniProt Q7V6D4); assay: decarbonylase assay (octadecanal to alkane, GC/MS); type: biochemical
T1 construct: made in house; host or cells: E. coli BL21 (DE3) Gold
T1 sequence (Q7V6D4 1-243): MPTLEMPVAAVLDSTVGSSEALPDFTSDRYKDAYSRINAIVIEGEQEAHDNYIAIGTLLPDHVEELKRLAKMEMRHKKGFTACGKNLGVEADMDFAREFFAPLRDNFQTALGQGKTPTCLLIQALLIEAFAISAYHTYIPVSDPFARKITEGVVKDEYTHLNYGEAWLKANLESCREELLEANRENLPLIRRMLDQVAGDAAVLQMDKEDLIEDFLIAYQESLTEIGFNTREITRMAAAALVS
Procedure: (§1) Typical decarbonylase assays were 0.25 mL and contained 25 mM Tris-Cl pH 7.5, 0.1% Triton X-100, 1 mM DTT, 50 μg/mL maize root ferredoxin and 1 U/mL anabaena vegetative ferredoxin reductase (Cahoon et al. 1997, PNAS 94:4872-4877.), 2 mM NADPH, 200 μM octadecanal, and between 0.2-5 μM ADC or CAT-ADC. A 20 mM octadecanal stock was freshly prepared by sonicating powder in 10% Triton X-100. Octadecanal was obtained from ISCA technologies. When indicated catalase (Sigma C-9322) was added to a final concentration of 4 mg/mL from a 20 mg/mL stock dissolved in 100 mM PIPES pH 6.0. For assays performed in 100% oxygen a reaction master mix without NADPH and a separate NADPH solution were prepared by repeated purging of the sample cell with 100% O2 and vacuum with the use of a Schlenk line. Reactions were initialed by addition of either enzyme, substrate, or NADPH and were incubated at 37° C. and stopped by the addition of an equal volume of ethyl acetate. The organic phase was separated by GC/MS on an HP-5 ms column with oven temperature increasing from 75° C. to 320° C. at 40° C./min with a flow rate of 1.3 ml/min. Substrate and product were identified by comparison to authentic standards.

[2] = substrate: CCCCCCCC/C=C\CCCCCCCC=O; assay: Decarbonylase assay: kinetics of aldehyde decarbonylase activity with aldehyde substrates of different lengths (FIG. 8); recombinant ADC, GenBank CAE21406.1, with N-terminal MGSDKIHHHHHHENLYFQG tag, expressed in E. coli BL21 (DE3) Gold; no mutations stated; type: biochemical, Prochlorococcus marinus; settings: other: aldehyde as substrate, typical assay 25 mM Tris-Cl pH 7.5, 0.1% Triton X-100, ferredoxin, ferredoxin reductase, 2 mM NADPH, 37° C., GC/MS
Excerpt: (§2) A catalase transcriptional fusion was produced as described below. […] The Catalase used was Ec catalase (GenBank Accession No. U00092.2) though the present invention is not limited to the use of this particular catalase. The ADC used was Pm ADC (GenBank Accession No. CAE21406.1). The ADC contains a diiron site. ADCs utilizing other metals are also suitable for use. For example, ribonucleotide reductase, which is normally a diiron protein can also use Mn (manganese) (Metallomics, 2011, 3(2):110-120, ePub […] Jan. 25). The catalase and ADC sequences were connected by a 20 amino acid linker: […] [SEQ ID NO: 8]. A 6×His-tag was added to the 3′ end for simplified purification. The recombinant catalase-ADC fusion (hybrid) protein (CAT-ADC or CA) was produced using the T7 expression system in E. coli and was purified using Ni-NTA agarose resin.
(§3) The pSpeedET T7 inducible bacterial expression plasmid containing the coding sequence for Prochlorococcus marinus aldehyde decarbonylase (ADC, GenBank: CAE21406.1 [SEQ ID NO: 1]) fused with an N-terminal MGSDKIHHHHHHENLYFQG [SEQ ID NO: 2] tag as constructed by the Joint Center for Structural Genomics, was obtained from the DNASU plasmid repository. The E. coli catalase (katE GenBank: U00096.2 [SEQ ID NO: 3]) ADC fusion protein (CAT-ADC) was constructed by overlap extension PCR. Primers for catalase were: forward—[…] [SEQ ID NO: 4] and reverse—[…] TTTGTCAATCTTAGG [SEQ ID NO: 5]. Primers for ADC were: forward—[…] TTGAGATGCCT [SEQ ID NO: 6] and reverse—[…] [SEQ ID NO: 7]. The final construct contained catalase followed by a 20 amino acid flexible linker domain ([…] [SEQ ID NO: 8]) (Martin et al 2005, Nature 473:1115-1120.) followed by ADC and finally a C-terminal hexahistidine tag and was cloned into the NdeI and XhoI sites of pET24b.
(§4) E. coli BL21 (DE3) Gold cells containing various plasmids were grown at 37° C. to an OD600 of 0.4, were induced with 0.4 mM IPTG, and were grown for an additional 4 hours at 37° C. for ADC or 30° C. for CAT-ADC. Cell pellets were suspended in 20 mM Tris-Cl pH 7.5, 150 mM NaCl, 20 mM imidazole, 5 mM MgCl2, and 0.1 mg/mL DNase and were lysed using a French pressure cell. Cellular debris was removed by centrifugation at 40,000×g for 20 min. Recombinant proteins were purified from the soluble fraction with Ni-NTA resin (Qiagen). Wash and elution buffers were 20 mM Tris-Cl pH 7.5, 300 mM NaCl, and 25 or 250 mM imidazole, respectively. Eluted proteins were immediately exchanged into 20 mM HEPES pH 7.8, 200 mM NaCl using PD-10 desalting columns. Protein concentration was determined with Bradford Assay (Sigma).
as §1

[3] = substrate: CCCCCCCC=O; assay: as above; type: biochemical, Prochlorococcus marinus; settings: other: aldehyde as substrate, typical assay 25 mM Tris-Cl pH 7.5, 0.1% Triton X-100, ferredoxin, ferredoxin reductase, 2 mM NADPH, 37° C., GC/MS
Excerpt: as §2, §3, §4, §1

[4] = substrate: CCCCCCCCCC=O; assay: as above; type: biochemical, Prochlorococcus marinus; settings: other: aldehyde as substrate, typical assay 25 mM Tris-Cl pH 7.5, 0.1% Triton X-100, ferredoxin, ferredoxin reductase, 2 mM NADPH, 37° C., GC/MS
Excerpt: as §2, §3, §4, §1

[5] = substrate: CCCCCCCCCCCC=O; assay: as above; type: biochemical, Prochlorococcus marinus; settings: other: aldehyde as substrate, typical assay 25 mM Tris-Cl pH 7.5, 0.1% Triton X-100, ferredoxin, ferredoxin reductase, 2 mM NADPH, 37° C., GC/MS
Excerpt: as §2, §3, §4, §1

[6] = substrate: CCCCCCCCCCCCCC=O; assay: as above; type: biochemical, Prochlorococcus marinus; settings: other: aldehyde as substrate, typical assay 25 mM Tris-Cl pH 7.5, 0.1% Triton X-100, ferredoxin, ferredoxin reductase, 2 mM NADPH, 37° C., GC/MS
Excerpt: as §2, §3, §4, §1

[7] = substrate: CCCCCCCCCCCCCCCC=O; assay: as above; type: biochemical, Prochlorococcus marinus; settings: other: aldehyde as substrate, typical assay 25 mM Tris-Cl pH 7.5, 0.1% Triton X-100, ferredoxin, ferredoxin reductase, 2 mM NADPH, 37° C., GC/MS
Excerpt: as §2, §3, §4, §1

[8] = substrate: CCCCCCCCCCCCCCCCCC=O; assay: as above; type: biochemical, Prochlorococcus marinus; settings: other: aldehyde as substrate, typical assay 25 mM Tris-Cl pH 7.5, 0.1% Triton X-100, ferredoxin, ferredoxin reductase, 2 mM NADPH, 37° C., GC/MS
Excerpt: as §2, §3, §4, §1

[9] = target: T1, aldehyde decarbonylase (ADC); settings: in the absence of catalase; Warui et al. 2011; cited from earlier work

With `OO` [H2O2, hydrogen peroxide, reference compound] the “inhibition of ADC by H2O2 in low oxygen atmosphere” value ([1]; 4% (50 μM) atmosphere) was “enhanced”, the “inhibition of ADC by H2O2 in oxygen atmosphere” value ([1]; 100% O2 (1250 μM) atmosphere, FIG. 2) was “lessened” and the “inhibition of ADC activity by H2O2” value ([1]; H2O2 added to decarbonylase assays, FIG. 1A / FIG. 2) was “selectively inhibited; also recorded: increasing inhibition”.

B1: aldehyde decarbonylase (ADC) (Prochlorococcus marinus str. MIT 9313) (protein)
chain: MPTLEMPVAAVLDSTVGSSEALPDFTSDRYKDAYSRINAIVIEGEQEAHDNYIAIGTLLPDHVEELKRLAKMEMRHKKGFTACGKNLGVEADMDFAREFFAPLRDNFQTALGQGKTPTCLLIQALLIEAFAISAYHTYIPVSDPFARKITEGVVKDEYTHLNYGEAWLKANLESCREELLEANRENLPLIRRMLDQVAGDAAVLQMDKEDLIEDFLIAYQESLTEIGFNTREITRMAAAALVS
notes: … (His6 tag) (N); made in house; host or cells: E. coli BL21 (DE3) Gold
B1 showed a Km [2] of 44.4 ± 7.2 µM, a Km [3] of 27.7 ± 9.9 µM and a Km [4] of 29.5 ± 6.2 µM. It also gave a Km [5] of 45.3 ± 18.5 µM, a Km [6] of 18.9 ± 1.7 µM and a Km [7] of 30.1 ± 4.2 µM. The Km [8] was 41.3 ± 4.8 µM.

B2: ADC: Prochlorococcus marinus aldehyde decarbonylase, GenBank CAE21406.1, N-terminal His tag (protein, UniProt Q7V6D4 1-243, looked up)
Aldehyde decarbonylase: MPTLEMPVAAVLDSTVGSSEALPDFTSDRYKDAYSRINAIVIEGEQEAHDNYIAIGTLLPDHVEELKRLAKMEMRHKKGFTACGKNLGVEADMDFAREFFAPLRDNFQTALGQGKTPTCLLIQALLIEAFAISAYHTYIPVSDPFARKITEGVVKDEYTHLNYGEAWLKANLESCREELLEANRENLPLIRRMLDQVAGDAAVLQMDKEDLIEDFLIAYQESLTEIGFNTREITRMAAAALVS
modifications: N-terminal His tag
notes: Prochlorococcus marinus aldehyde decarbonylase, GenBank CAE21406.1, N-terminal His tag
In the case of B2, the “sensitivity of decarbonylase activity to H2O2 inhibition” value ([1]; 200 μM substrate, 1 mM H2O2 added, FIG. 6A) is reported as “inhibited by H2O2”, the “decarbonylase activity with or without added catalase” value ([1]; 200 μM substrate, excess NADPH, ferredoxin, FNR, FIG. 6A) is reported as “highest activity only when catalase was added” and the “time after which ADC activity was inhibited” value ([1]; without catalase, FIG. 1B) is reported as “about 15 min”. For the same molecule, the “turnovers until ADC activity was inhibited” value ([1]; without catalase, FIG. 1B) was “about 3 turnovers” and the “turnovers of ADC before it becomes inactive” value [9] was “approximately three”.

B3: catalase: catalase enzyme (Sigma C-9322) added at 4 mg/mL; converts hydrogen peroxide to water and oxygen (protein, UniProt P00432 2-527, looked up)
Catalase: ADNRDPASDQMKHWKEQRAAQKPDVLTTGGGNPVGDKLNSLTVGPRGPLLVQDVVFTDEMAHFDRERIPERVVHAKGAGAFGYFEVTHDITRYSKAKVFEHIGKRTPIAVRFSTVAGESGSADTVRDPRGFAVKFYTEDGNWDLVGNNTPIFFIRDALLFPSFIHSQKRNPQTHLKDPDMVWDFWSLRPESLHQVSFLFSDRGIPDGHRHMNGYGSHTFKLVNANGEAVYCKFHYKTDQGIKNLSVEDAARLAHEDPDYGLRDLFNAIATGNYPSWTLYIQVMTFSEAEIFPFNPFDLTKVWPHGDYPLIPVGKLVLNRNPVNYFAEVEQLAFDPSNMPPGIEPSPDKMLQGRLFAYPDTHRHRLGPNYLQIPVNCPYRARVANYQRDGPMCMMDNQGGAPNYYPNSFSAPEHQPSALEHRTHFSGDVQRFNSANDDNVTQVRTFYLKVLNEEQRKRLCENIAGHLKDAQLFIQKKAVKNFSDVHPEYGSRIQALLDKYNEEKPKNAVHTYVQHGSHLSAREKANL
For B3, the “relief of inhibition by catalase in all electron transport systems studied” value ([1]; Maize FNR/anabaena Fd, Spinach FNR/ferredoxin, PMS/NADH, FIG. 10) was “relieves the inhibition”, the “relief of H2O2 inhibition of ADC by added catalase” value ([1]; catalase added, 0, 1 or 10 mM H2O2 (FIG. 3), FIG. 1B) was “restoration of ADC activity; also recorded: effective in overcoming the H2O2 induced inhibition of ADC” and the “turnovers of the ADC reaction in the presence of catalase” value ([1]; excess aldehyde substrate, NADPH, ferredoxin NADPH reductase and ferredoxin, 16 hrs (FIG. 9)) was “greater than 150 turnovers”.
